Measurements reported in ChEMBL document CHEMBL4680222, “Sensitive fluorogenic substrates for sirtuin deacylase inhibitor discovery” (Eur J Med Chem, 2020).

How the values were obtained:
[1] = compound: CC(=O)NCCCC[C@H](NC(=O)[C@H](CC(C)C)NC(=O)[C@H](CCCCN)NC(=O)[C@H](Cc1ccc(O)cc1)NC(C)=O)C(=O)Nc1ccc2c(C)cc(=O)oc2c1; test: (§1) Substrate activity at human N-terminal His-tagged SIRT2 (56 to 356 residues) expressed in Escherichia coli assessed as Vmax measured after 1 hr in presence of NAD+ and trypsin by Michaelis-Menten kinetic model based fluorescence assay
[2] = compound: CCCCCCCCCC(=O)NCCCC[C@H](NC(=O)[C@H](CC(=O)O)NC(=O)[C@@H](NC(=O)[C@H](CCC(=O)O)NC(C)=O)[C@@H](C)O)C(=O)Nc1ccc2c(C)cc(=O)oc2c1; test: as §1
[3] = compound: CCCCCCCCCCCCCC(=O)NCCCC[C@H](NC(=O)OCc1ccccc1)C(=O)Nc1ccc2c(C)cc(=O)oc2c1; test: as §1
[4] = compound: CC[C@H](C)[C@H](NC(=O)[C@H](CC(C)C)NC(=O)[C@H](CCCNC(=N)N)NC(C)=O)C(=O)N[C@@H](CCCCNC(C)=O)C(=O)Nc1ccc2c(C)cc(=O)oc2c1; test: as §1
[5] = compound: CC(=O)NCCCC[C@H](NC(=O)OCc1ccccc1)C(=O)Nc1ccc2c(C)cc(=O)oc2c1; test: as §1
[6] = compound: CCCCCCCCCC(=O)NCCCC[C@H](NC(=O)[C@@H](NC(=O)[C@H](CO)NC(=O)[C@H](CO)NC(C)=O)[C@@H](C)CC)C(=O)Nc1ccc2c(C)cc(=O)oc2c1; test: as §1
[7] = compound: CC(=O)NCCCC[C@H](NC(=O)[C@H](CC(C)C)NC(=O)[C@H](CCCCN)NC(=O)[C@H](Cc1ccc(O)cc1)NC(C)=O)C(=O)Nc1ccc2c(C)cc(=O)oc2c1; test: (§2) Substrate activity at human N-terminal His-tagged SIRT2 (56 to 356 residues) expressed in Escherichia coli assessed as Km measured after 1 hr in presence of NAD+ and trypsin by Michaelis-Menten kinetic model based fluorescence assay
[8] = compound: CCCCCCCCCC(=O)NCCCC[C@H](NC(=O)[C@H](CC(=O)O)NC(=O)[C@@H](NC(=O)[C@H](CCC(=O)O)NC(C)=O)[C@@H](C)O)C(=O)Nc1ccc2c(C)cc(=O)oc2c1; test: as §2
[9] = compound: CCCCCCCCCCCCCC(=O)NCCCC[C@H](NC(=O)OCc1ccccc1)C(=O)Nc1ccc2c(C)cc(=O)oc2c1; test: as §2
[10] = compound: CC[C@H](C)[C@H](NC(=O)[C@H](CC(C)C)NC(=O)[C@H](CCCNC(=N)N)NC(C)=O)C(=O)N[C@@H](CCCCNC(C)=O)C(=O)Nc1ccc2c(C)cc(=O)oc2c1; test: as §2
[11] = compound: CC(=O)NCCCC[C@H](NC(=O)OCc1ccccc1)C(=O)Nc1ccc2c(C)cc(=O)oc2c1; test: as §2
[12] = compound: CCCCCCCCCC(=O)NCCCC[C@H](NC(=O)[C@@H](NC(=O)[C@H](CO)NC(=O)[C@H](CO)NC(C)=O)[C@@H](C)CC)C(=O)Nc1ccc2c(C)cc(=O)oc2c1; test: as §2
[13] = compound: CC(=O)NCCCC[C@H](NC(=O)[C@H](CC(C)C)NC(=O)[C@H](CCCCN)NC(=O)[C@H](Cc1ccc(O)cc1)NC(C)=O)C(=O)Nc1ccc2c(C)cc(=O)oc2c1; test: (§3) Substrate activity at human N-terminal His-tagged SIRT2 (56 to 356 residues) expressed in Escherichia coli assessed as ratio of Kcat to Km measured after 1 hr in presence of NAD+ and trypsin by Michaelis-Menten kinetic model based fluorescence assay
[14] = compound: CCCCCCCCCC(=O)NCCCC[C@H](NC(=O)[C@H](CC(=O)O)NC(=O)[C@@H](NC(=O)[C@H](CCC(=O)O)NC(C)=O)[C@@H](C)O)C(=O)Nc1ccc2c(C)cc(=O)oc2c1; test: as §3
[15] = compound: CCCCCCCCCCCCCC(=O)NCCCC[C@H](NC(=O)OCc1ccccc1)C(=O)Nc1ccc2c(C)cc(=O)oc2c1; test: as §3
[16] = compound: CC[C@H](C)[C@H](NC(=O)[C@H](CC(C)C)NC(=O)[C@H](CCCNC(=N)N)NC(C)=O)C(=O)N[C@@H](CCCCNC(C)=O)C(=O)Nc1ccc2c(C)cc(=O)oc2c1; test: as §3
[17] = compound: CC(=O)NCCCC[C@H](NC(=O)OCc1ccccc1)C(=O)Nc1ccc2c(C)cc(=O)oc2c1; test: as §3
[18] = compound: CCCCCCCCCC(=O)NCCCC[C@H](NC(=O)[C@@H](NC(=O)[C@H](CO)NC(=O)[C@H](CO)NC(C)=O)[C@@H](C)CC)C(=O)Nc1ccc2c(C)cc(=O)oc2c1; test: as §3
[19] = compound: CC(=O)NCCCC[C@H](NC(=O)[C@H](CC(C)C)NC(=O)[C@H](CCCCN)NC(=O)[C@H](Cc1ccc(O)cc1)NC(C)=O)C(=O)Nc1ccc2c(C)cc(=O)oc2c1; test: (§4) Substrate activity at human N-terminal His-tagged SIRT2 (56 to 356 residues) expressed in Escherichia coli assessed as Kcat measured after 1 hr in presence of NAD+ and trypsin by Michaelis-Menten kinetic model based fluorescence assay
[20] = compound: CCCCCCCCCC(=O)NCCCC[C@H](NC(=O)[C@H](CC(=O)O)NC(=O)[C@@H](NC(=O)[C@H](CCC(=O)O)NC(C)=O)[C@@H](C)O)C(=O)Nc1ccc2c(C)cc(=O)oc2c1; test: as §4
[21] = compound: CCCCCCCCCCCCCC(=O)NCCCC[C@H](NC(=O)OCc1ccccc1)C(=O)Nc1ccc2c(C)cc(=O)oc2c1; test: as §4
[22] = compound: CC[C@H](C)[C@H](NC(=O)[C@H](CC(C)C)NC(=O)[C@H](CCCNC(=N)N)NC(C)=O)C(=O)N[C@@H](CCCCNC(C)=O)C(=O)Nc1ccc2c(C)cc(=O)oc2c1; test: as §4
[23] = compound: CC(=O)NCCCC[C@H](NC(=O)OCc1ccccc1)C(=O)Nc1ccc2c(C)cc(=O)oc2c1; test: as §4
[24] = compound: CCCCCCCCCC(=O)NCCCC[C@H](NC(=O)[C@@H](NC(=O)[C@H](CO)NC(=O)[C@H](CO)NC(C)=O)[C@@H](C)CC)C(=O)Nc1ccc2c(C)cc(=O)oc2c1; test: as §4

B1: NAD-dependent protein deacetylase sirtuin-2 (Homo sapiens), Q8IXJ6 (protein)
chain: MAEPDPSHPLETQAGKVQEAQDSDSDSEGGAAGGEADMDFLRNLFSQTLSLGSQKERLLDELTLEGVARYMQSERCRRVICLVGAGISTSAGIPDFRSPSTGLYDNLEKYHLPYPEAIFEISYFKKHPEPFFALAKELYPGQFKPTICHYFMRLLKDKGLLLRCYTQNIDTLERIAGLEQEDLVEAHGTFYTSHCVSASCRHEYPLSWMKEKIFSEVTPKCEDCQSLVKPDIVFFGESLPARFFSCMQSDFLKVDLLLVMGTSLQVQPFASLISKAPLSTPRLLINKEKAGQSDPFLGMIMGLGGGMDFDSKKAYRDVAWLGECDQGCLALAELLGWKKELEDLVRREHASIDAQSGAGVPNPSTSASPKKSPPPAKDEARTTEREKPQ
Vmax [1]: 81.9 nM/min | Vmax [2]: 61.9 nM/min | Vmax [3]: 1.63 nM/min | Vmax [4]: 36.1 nM/min | Vmax [5]: 26.3 nM/min | Vmax [6]: 25.5 nM/min | Km [7]: 106 µM | Km [8]: 16.5 µM | Km [9]: 1.7 µM | Km [10]: 41.6 µM | Km [11]: 274 µM | Km [12]: 1.2 µM | kcat/Km [13]: 129 M⁻¹ s⁻¹ | kcat/Km [14]: 1250 M⁻¹ s⁻¹ | kcat/Km [15]: 3.2 M⁻¹ s⁻¹ | kcat/Km [16]: 289 M⁻¹ s⁻¹ | kcat/Km [17]: 3.5 M⁻¹ s⁻¹ | kcat/Km [18]: 3530 M⁻¹ s⁻¹ | kcat [19]: 13.6 10^-3/s | kcat [20]: 20.6 10^-3/s | kcat [21]: 0.054 10^-3/s | kcat [22]: 12 10^-3/s | kcat [23]: 0.98 10^-3/s | kcat [24]: 4.25 10^-3/s
